The source of these data is article PMC12412624, “Engineered Cas12j‐8 is a Versatile Platform for Multiplexed Genome Modulation in Mammalian Cells”.

Residue numbers refer to the chain shown, from its start.

Series [1] concerns T1, dCas12j-8 D495R D495R;D369A;E567A;D658A (bacteriophage (metagenome)).
T1 sequence: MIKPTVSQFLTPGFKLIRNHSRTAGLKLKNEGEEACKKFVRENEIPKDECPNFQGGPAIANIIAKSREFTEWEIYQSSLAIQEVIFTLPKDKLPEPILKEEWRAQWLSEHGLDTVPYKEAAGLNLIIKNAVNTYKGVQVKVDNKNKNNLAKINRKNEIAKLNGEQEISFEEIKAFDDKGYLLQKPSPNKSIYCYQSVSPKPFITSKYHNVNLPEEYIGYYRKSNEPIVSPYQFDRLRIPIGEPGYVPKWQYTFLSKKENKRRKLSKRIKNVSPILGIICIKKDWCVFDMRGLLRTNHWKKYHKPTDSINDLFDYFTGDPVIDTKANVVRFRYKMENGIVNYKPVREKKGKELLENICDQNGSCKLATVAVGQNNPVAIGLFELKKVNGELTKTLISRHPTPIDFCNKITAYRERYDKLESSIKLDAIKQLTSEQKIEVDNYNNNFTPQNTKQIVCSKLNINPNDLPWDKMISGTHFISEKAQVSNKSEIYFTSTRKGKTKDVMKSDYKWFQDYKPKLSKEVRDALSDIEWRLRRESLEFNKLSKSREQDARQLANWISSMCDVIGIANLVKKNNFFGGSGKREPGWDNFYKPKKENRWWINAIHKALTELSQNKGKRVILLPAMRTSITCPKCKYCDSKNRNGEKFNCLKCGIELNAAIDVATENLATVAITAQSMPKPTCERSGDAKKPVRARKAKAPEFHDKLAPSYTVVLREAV
The following applies: HEK293T cells; panel 1c (compare within a panel only); scale: mean GFP / mean GFP of wild type, printed, no background subtraction.

Series [2] has as its system T2, dCas12j-8 E258R+D313R+D495R+D527R+E547R E258R;D313R;D495R;D527R;E547R;D369A;E567A;D658A (bacteriophage (metagenome)).
T2 sequence: T1 sequence with E258R, D313R, D527R, E547R
The following applies: HEK293T cells; panel 1e (compare within a panel only); scale: mean GFP / mean GFP of wild type, printed, no background subtraction.

In series [3] the test system is T3, dCas12j-8 E258R+D313R+D527R E258R;D313R;D527R;D369A;E567A;D658A (bacteriophage (metagenome)).
T3 sequence: T1 sequence with E258R, D313R, R495D, D527R
The following applies: HEK293T cells; panel 1e (compare within a panel only); scale: mean GFP / mean GFP of wild type, printed, no background subtraction.

The subject of series [4] is T4, dCas12j-8 E547R E547R;D369A;E567A;D658A (bacteriophage (metagenome)).
T4 sequence: T1 sequence with R495D, E547R
To be noted: HEK293T cells; panel 1c (compare within a panel only); scale: mean GFP / mean GFP of wild type, printed, no background subtraction.

Consider “CUUUCAAGACUAAUAGAUUGCUCCUUACGAGGAGACACUCCCUAUCAGUGAUAGAG / TTNACTCCCTATCAGTGATAGAG / CTCTATCACTGATAGGGAGTNAA [TetO]”, for which the binding signal in series [1] came out at 1.18; in series [2], 5.89; in series [3], 5.09; in series [4], 1.22.
